Laboratory results taken from paper PMC11272775, “Epigenetic memory is governed by an effector recruitment specificity toggle in Heterochromatin Protein 1” (Nature Communications, 2024).

Tested on: Swi6-Y (Swi6-T278Y) (Schizosaccharomyces pombe)
Assay: EMSA
Settings: 20 mM Hepes pH 7.5, 4 mM Tris, 80 mM KCl, 0.1% Igepal CA-630, 0.2 mM EDTA, 2 mM DTT, 10% glycerol, 10 nM mononucleosome, 30 °C 45 min, 6% acrylamide 0.5x TBE …

Substance: H3K9me3 mononucleosome
- K half (H3K9me3 histone, histone H3K9me3 (DNA unmodified)): 39 nM

Substance: H3K9me0 mononucleosome
- binding signal (fold weaker than H3K9me3) (H3K9me0 histone, unmodified H3 (H3K9me0)): 2.3
